T1: gene 32 protein (g32p), full-length (bacteriophage T4, UniProt P03695 1-301)
T1 sequence: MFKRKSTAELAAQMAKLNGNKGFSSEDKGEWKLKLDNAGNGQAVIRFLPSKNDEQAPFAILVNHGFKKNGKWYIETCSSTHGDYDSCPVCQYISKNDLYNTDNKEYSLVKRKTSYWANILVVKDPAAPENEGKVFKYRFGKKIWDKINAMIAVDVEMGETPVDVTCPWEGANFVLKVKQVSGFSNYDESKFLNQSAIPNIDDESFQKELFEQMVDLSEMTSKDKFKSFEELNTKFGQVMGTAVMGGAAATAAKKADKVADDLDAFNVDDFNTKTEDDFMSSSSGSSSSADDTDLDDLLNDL

B1: (dT)21/(dA)21 duplex (dsDNA)
DNA 1: TTTTTTTTTTTTTTTTTTTTT
DNA 2: AAAAAAAAAAAAAAAAAAAAA
modifications: 5' thiol; 3' methylene blue on dT strand

Columns and labels:
Test in all cases: electrochemical DNA sensor
thrombin = thrombin (bovine, UniProt P00735;P00735 318-366;367-625)
[1] = biological target: T1, gene 32 protein (g32p), full-length
[2] = biological target: T1, gene 32 protein (g32p), full-length; remark: listed apart in the source

Binder | binding result (thrombin) | Kd [1] | binding result [2]
TTTTTTTTTTTTTTTTTTTTT (ssDNA, 5' thiol; 3' methylene blue) [(dT)21 probe] | no binding | ~100 nM | –
B1 | – | – | no binding
